Measured values published in patent US20170158755A1 (PROTHENA BIOSCIENCES, published 2017).
Each block holds one binder with its values, some of them ahead of it.

Key:
[1] = target: T1, mouse His-laminin-α4 (mouse, UniProt P97927 826-1816, limits assumed); assay: Biacore SPR
T1 construct: Bought His-tagged recombinant protein; also called Murine LAMA4; recombinant mouse LAMA4-His
T1 sequence (looked up): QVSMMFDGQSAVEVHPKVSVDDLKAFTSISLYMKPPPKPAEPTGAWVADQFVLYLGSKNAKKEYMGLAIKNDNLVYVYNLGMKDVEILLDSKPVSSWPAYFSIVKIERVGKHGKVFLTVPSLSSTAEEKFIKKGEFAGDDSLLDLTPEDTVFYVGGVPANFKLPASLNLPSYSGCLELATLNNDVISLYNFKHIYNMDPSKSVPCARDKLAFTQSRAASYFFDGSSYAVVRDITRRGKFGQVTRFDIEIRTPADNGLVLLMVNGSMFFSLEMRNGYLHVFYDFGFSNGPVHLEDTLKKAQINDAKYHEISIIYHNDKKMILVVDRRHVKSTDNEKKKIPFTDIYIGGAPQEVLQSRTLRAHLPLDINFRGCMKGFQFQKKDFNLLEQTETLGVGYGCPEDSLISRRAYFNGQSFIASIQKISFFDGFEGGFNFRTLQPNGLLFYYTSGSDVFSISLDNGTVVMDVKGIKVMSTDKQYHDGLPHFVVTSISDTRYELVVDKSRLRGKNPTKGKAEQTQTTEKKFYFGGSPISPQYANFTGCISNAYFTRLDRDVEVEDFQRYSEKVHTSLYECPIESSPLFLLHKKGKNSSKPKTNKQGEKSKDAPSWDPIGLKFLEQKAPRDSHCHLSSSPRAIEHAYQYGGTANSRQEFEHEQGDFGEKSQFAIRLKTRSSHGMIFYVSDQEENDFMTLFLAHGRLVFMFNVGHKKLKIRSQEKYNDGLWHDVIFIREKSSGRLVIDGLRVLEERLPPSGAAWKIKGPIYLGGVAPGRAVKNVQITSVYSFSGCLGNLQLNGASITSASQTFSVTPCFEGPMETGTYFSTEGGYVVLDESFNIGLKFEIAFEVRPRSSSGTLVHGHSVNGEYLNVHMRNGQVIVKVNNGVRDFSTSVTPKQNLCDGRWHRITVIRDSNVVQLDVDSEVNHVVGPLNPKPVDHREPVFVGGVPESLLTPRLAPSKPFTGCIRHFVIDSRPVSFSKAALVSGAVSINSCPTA

[2] = target: T2, human His-laminin-α4 (human, UniProt Q16363 833-1823, limits assumed); assay: Biacore SPR
T2 construct: Bought His-tagged recombinant protein (R & D Systems); also called Human LAMA4; human His-laminin-α4 (R & D Systems)
T2 sequence: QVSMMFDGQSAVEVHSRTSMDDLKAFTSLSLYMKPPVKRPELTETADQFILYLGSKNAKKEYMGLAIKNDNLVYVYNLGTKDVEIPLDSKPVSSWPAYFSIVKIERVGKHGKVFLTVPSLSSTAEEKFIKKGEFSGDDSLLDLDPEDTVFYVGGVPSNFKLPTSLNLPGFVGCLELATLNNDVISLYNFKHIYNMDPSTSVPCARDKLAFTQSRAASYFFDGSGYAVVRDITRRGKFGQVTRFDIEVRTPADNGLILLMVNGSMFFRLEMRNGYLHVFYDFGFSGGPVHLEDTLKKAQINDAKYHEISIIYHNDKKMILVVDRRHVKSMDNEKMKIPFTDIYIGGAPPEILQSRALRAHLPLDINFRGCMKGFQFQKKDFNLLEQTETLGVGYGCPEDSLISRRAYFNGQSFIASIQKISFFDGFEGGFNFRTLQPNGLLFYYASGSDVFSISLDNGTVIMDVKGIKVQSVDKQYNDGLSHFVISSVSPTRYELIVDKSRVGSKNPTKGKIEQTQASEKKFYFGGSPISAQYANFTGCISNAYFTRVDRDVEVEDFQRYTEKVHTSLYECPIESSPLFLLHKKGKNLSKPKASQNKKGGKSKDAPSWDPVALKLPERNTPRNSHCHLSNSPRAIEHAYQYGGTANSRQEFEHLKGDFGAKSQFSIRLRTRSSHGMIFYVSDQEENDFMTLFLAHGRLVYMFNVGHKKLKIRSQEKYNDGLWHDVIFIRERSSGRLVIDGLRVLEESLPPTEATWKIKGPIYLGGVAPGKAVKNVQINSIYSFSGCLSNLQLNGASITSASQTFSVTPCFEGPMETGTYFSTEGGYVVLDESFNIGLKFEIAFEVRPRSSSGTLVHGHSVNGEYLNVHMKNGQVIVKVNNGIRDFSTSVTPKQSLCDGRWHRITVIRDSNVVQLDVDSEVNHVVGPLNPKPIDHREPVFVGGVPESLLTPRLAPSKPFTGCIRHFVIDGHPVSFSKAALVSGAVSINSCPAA

Kd [1]: 0.965 nM | koff [1]: 0.0061 s⁻¹ | kon [1]: 6.32e+06 M⁻¹ s⁻¹ | Kd [2]: 1.27 nM | koff [2]: 0.00858 s⁻¹ | kon [2]: 6.72e+06 M⁻¹ s⁻¹
B1: mouse monoclonal antibody 19C12 (antibody, V domains shown)
VH: QVQLQQSGAELVKPGASVKISCKASGYAFSTYWMNWVKQRPGEGLEWIGQIYPGDGDTNYNGKFKGKATLTADKSSSTAYMQLSSLTSEDSAVYFCARSDGYYDYWGQGTTLTVSS
VL: NIVLTQSPASLAVSLGQRATISCRASESVDSYGTSFMHWYQQKPGQPPKLLICLASSLESGVPARFSGSGSRTDFTLTIDPVEADDAATYYCQQNNEDPPTFGAGTKLELKR
notes: Mouse hybridoma antibody; Mouse IgG2b was used as its isotype control; also called m19C12

Kd [1]: 16.1 nM | koff [1]: 0.00947 s⁻¹ | kon [1]: 590000 M⁻¹ s⁻¹ | Kd [2]: 13.3 nM | koff [2]: 0.00917 s⁻¹ | kon [2]: 610000 M⁻¹ s⁻¹
B2: mouse monoclonal antibody 1C1 (antibody, V domains shown)
VH: QVQLQQSGAELARPGASVKLSCKASGYTFTNYGISWVKQRTGQGLEWIGAIYPRSGNTYYNEKFKGKATLTADKSSSTAYMELRSLTSEDSAVYFCARERDYGSSYALDYWGQGTSVTVSS
VL: DIVMTQSQKFMSTSVGDRVSVTCKASHNVGTNVAWYQQKPGQSPKPLIYSASYRYSGVPDRFTGSGSGTDFTLTISNVQSEDLADYFCQQFNNYPYTFGGGTKLEIKR
notes: version 1 is written here
